{"source": "patent US20210246451", "about": "“APTAMER FOR ADAMTS5 AND USE FOR APTAMER FOR ADAMTS5” (RIBOMIC INC., published 2021)", "binders": {"B1": {"name": "SEQ ID NO: 31 (ssRNA)", "RNA": "GGGUAUUGGGGCCUCCACAGUUGAAGCUUGGACUAAACCAAUCUCGA", "modifications": "2'-F pyrimidines"}, "B2": {"name": "SEQ ID NO: 32 (ssRNA)", "RNA": "B1 RNA with U21A, U22A, G23A, G26U", "modifications": "2'-F pyrimidines"}, "B3": {"name": "SEQ ID NO: 33 (ssRNA)", "RNA": "B1 RNA with U21C, U22C, A25G", "modifications": "2'-F pyrimidines"}, "B4": {"name": "SEQ ID NO: 34 (ssRNA)", "RNA": "GGGUAUUGGGGCCUCCACAGAAAAAACUUGGACUAAACCAACUCGA", "modifications": "2'-F pyrimidines"}, "B5": {"name": "SEQ ID NO: 42 (ssRNA)", "RNA": "B4 RNA with A22U, A25U, A26U", "modifications": "2'-F pyrimidines"}, "B6": {"name": "SEQ ID NO: 36 (ssRNA)", "RNA": "B4 RNA with A21U, A22U, A23U", "modifications": "2'-F pyrimidines"}, "B7": {"name": "SEQ ID NO: 35 (ssRNA)", "RNA": "B4 RNA with A21U, A24G, A25C, A41G", "modifications": "2'-F pyrimidines"}, "B8": {"name": "SEQ ID NO: 38 (ssRNA)", "RNA": "GGGUAUUGGGGCCUCCACGCUAGAAGGCUGGACUAAACCAACUCGA", "modifications": "2'-F pyrimidines"}, "B9": {"name": "SEQ ID NO: 40 (ssRNA)", "RNA": "B8 RNA with U21A, G23U, A24G, A25G, G26U", "modifications": "2'-F pyrimidines"}, "B10": {"name": "SEQ ID NO: 41 (ssRNA)", "RNA": "GGGUAUUGGGGCCUCCACAUGGAUACAUUGGACUAAACCAACUCGA", "modifications": "2'-F pyrimidines"}, "B11": {"name": "SEQ ID NO: 39 (ssRNA)", "RNA": "GGGUAUUGGGGCCUCCACGUAACUAAACUGGACUAAACCAACUCGA", "modifications": "2'-F pyrimidines"}, "B12": {"name": "SEQ ID NO: 30 (ssRNA)", "RNA": "GGGUAUUGGGGCCUCCACAAUAGAUAAAUGGACUAAACCAACUCGA", "modifications": "2'-F pyrimidines"}, "B13": {"name": "SEQ ID NO: 37 (ssRNA)", "RNA": "B4 RNA with A21U, A25U, A26U", "modifications": "2'-F pyrimidines"}, "B14": {"name": "11(1) (ssRNA)", "RNA": "AUUGGGGCCUCCACAGCGCUCGCUUGGACUAAACCAAU", "modifications": "2'-OMe at 1-5,15-26,32-38; 2'-F other pyrimidines"}, "B15": {"name": "11(11) (mixed)", "RNA": "B14 RNA", "modifications": "as 11(1) with dA at 28"}, "B16": {"name": "11(2) (mixed)", "RNA": "B14 RNA", "modifications": "as 11(1) with dG at 6"}, "B17": {"name": "SEQ ID NO: 13 (ssRNA)", "RNA": "B14 RNA with A1G, U2C, A37G, U38C", "modifications": "2'-OMe at 1-5,15-26,32-38; 2'-F other pyrimidines"}, "B18": {"name": "11(3) (mixed)", "RNA": "B14 RNA", "modifications": "as 11(1) with dG at 7"}, "B19": {"name": "11(14) (mixed)", "RNA": "B14 RNA", "modifications": "as 11(1) with dA at 31"}, "B20": {"name": "11(10) (mixed)", "RNA": "B14 RNA", "modifications": "as 11(1) with dG at 27"}, "B21": {"name": "11(12) (mixed)", "RNA": "B14 RNA", "modifications": "as 11(1) with dC at 29"}, "B22": {"name": "11(32) (ssRNA)", "RNA": "B14 RNA", "modifications": "as 11(1) with PS between 8-9, 9-10, 10-11, 14-15; 3' idT"}, "B23": {"name": "11(9) (mixed)", "RNA": "B14 RNA", "modifications": "as 11(1) with dC at 14"}, "B24": {"name": "11(16) (ssRNA)", "RNA": "B14 RNA", "modifications": "as 11(1) with PS between 5 and 6"}, "B25": {"name": "11(13) (mixed)", "RNA": "B14 RNA", "modifications": "as 11(1) with dT at 30"}, "B26": {"name": "SEQ ID NO: 14 (ssRNA)", "RNA": "B14 RNA with G18U, C19U, U20C, C21G", "modifications": "2'-OMe at 1-5,15-26,32-38; 2'-F other pyrimidines"}, "B27": {"name": "11(6) (mixed)", "RNA": "B14 RNA", "modifications": "as 11(1) with dT at 10"}, "B28": {"name": "11(25) (ssRNA)", "RNA": "B14 RNA", "modifications": "as 11(1) with PS between 14 and 15"}, "B29": {"name": "11(15) (mixed)", "RNA": "B14 RNA", "modifications": "as 11(1) with dA at 13"}, "B30": {"name": "11(17) (ssRNA)", "RNA": "B14 RNA", "modifications": "as 11(1) with PS between 6 and 7"}, "B31": {"name": "11(19) (ssRNA)", "RNA": "B14 RNA", "modifications": "as 11(1) with PS between 8 and 9"}, "B32": {"name": "11(33) (ssRNA)", "RNA": "B14 RNA", "modifications": "as 11(1) with 5' 40 kDa branched PEG and 3' idT"}, "B33": {"name": "11(21) (ssRNA)", "RNA": "B14 RNA", "modifications": "as 11(1) with PS between 10 and 11"}, "B34": {"name": "11(20) (ssRNA)", "RNA": "B14 RNA", "modifications": "as 11(1) with PS between 9 and 10"}, "B35": {"name": "11(7) (mixed)", "RNA": "B14 RNA", "modifications": "as 11(1) with dC at 11"}, "B36": {"name": "11(8) (mixed)", "RNA": "B14 RNA", "modifications": "as 11(1) with dC at 12"}, "B37": {"name": "11(4) (mixed)", "RNA": "B14 RNA", "modifications": "as 11(1) with dC at 8"}, "B38": {"name": "11(18) (ssRNA)", "RNA": "B14 RNA", "modifications": "as 11(1) with PS between 7 and 8"}, "B39": {"name": "11(30) (ssRNA)", "RNA": "B14 RNA", "modifications": "as 11(1) with PS between 30 and 31"}, "B40": {"name": "11(5) (mixed)", "RNA": "B14 RNA", "modifications": "as 11(1) with dC at 9"}, "B41": {"name": "10(1) (ssRNA)", "RNA": "AUUGGGGCCUCCACAGCUGCUCAGCUUGGACUAAACCAAU", "modifications": "as SEQ 10 plus 2'-OMe at C8"}, "B42": {"name": "10(3) (ssRNA)", "RNA": "B41 RNA", "modifications": "as SEQ 10 plus 2'-OMe at U10"}, "B43": {"name": "10(4) (ssRNA)", "RNA": "B41 RNA", "modifications": "as SEQ 10 plus 2'-OMe at C11"}, "B44": {"name": "10(5) (ssRNA)", "RNA": "B41 RNA", "modifications": "as SEQ 10 plus 2'-OMe at C12"}, "B45": {"name": "10(7) (ssRNA)", "RNA": "B41 RNA", "modifications": "as SEQ 10 plus 2'-OMe at C31"}, "B46": {"name": "10(2) (ssRNA)", "RNA": "B41 RNA", "modifications": "as SEQ 10 plus 2'-OMe at C9"}, "B47": {"name": "10(6) (ssRNA)", "RNA": "B41 RNA", "modifications": "as SEQ 10 plus 2'-OMe at U27"}, "B48": {"name": "10(8) (ssRNA)", "RNA": "B41 RNA", "modifications": "as SEQ 10 plus 2'-OMe at U32"}}, "note": "Positions count from the first letter of the chain named."}
{"target": "T1, ADAMTS5 (UniProt Q9UNA0 Q9UNA0:262-622)", "T1 sequence": "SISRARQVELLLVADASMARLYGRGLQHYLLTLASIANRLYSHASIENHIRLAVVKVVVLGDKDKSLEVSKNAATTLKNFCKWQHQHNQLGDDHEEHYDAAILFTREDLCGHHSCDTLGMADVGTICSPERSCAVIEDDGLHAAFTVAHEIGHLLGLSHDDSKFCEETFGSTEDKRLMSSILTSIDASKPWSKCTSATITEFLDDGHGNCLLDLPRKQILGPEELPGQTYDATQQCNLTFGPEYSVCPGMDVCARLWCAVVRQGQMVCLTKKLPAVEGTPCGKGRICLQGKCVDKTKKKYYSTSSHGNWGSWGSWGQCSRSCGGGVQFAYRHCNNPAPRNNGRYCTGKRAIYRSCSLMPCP", "assay": "SPR; RU ratio >=40%", "details": "tags: R&D Systems"}
{"binder": "B1", "binding result": "binds"}
{"binder": "B2", "binding result": "binds"}
{"binder": "B3", "binding result": "binds"}
{"binder": "B4", "binding result": "binds"}
{"binder": "B5", "binding result": "binds"}
{"binder": "B6", "binding result": "binds"}
{"binder": "B7", "binding result": "binds"}
{"binder": "B8", "binding result": "binds"}
{"binder": "B9", "binding result": "binds"}
{"binder": "B10", "binding result": "binds"}
{"binder": "B11", "binding result": "binds"}
{"binder": "B12", "binding result": "binds"}
{"binder": "B13", "binding result": "binds"}
{"target": "T1, ADAMTS5", "assay": "inhibition; 10 nM", "details": "tags: R&D Systems", "protocol": "Whether an aptamer having the nucleotide sequence shown in SEQ ID NO: 1 inhibits the enzyme activity of ADAMTS5 was evaluated by the following method. As a substrate of ADAMTS5, the G1-IGD-G2 domain of aggrecan (manufactured by R&D systems) was used. ADAMTS5 specifically cleaves in between the 392nd glutamic acid and the 393rd alanine in the G1-IGD-G2 domain and produces two fragments. These fragments have faster electrophoretic mobility than uncleaved G1-IGD-G2. Thus, the enzyme activity of ADAMTS5 can be measured by quantifying the band intensity of G1-IGD-G2 by SDS-PAGE electrophoresis. The assay was performed in a solution A buffer with a reaction mixture volume of 10 μL. First, a mixture (10 μL) of a nucleic acid and ADAMTS5 was prepared and incubated at 25° C. for 15 min. To a substrate solution (5 μL) diluted with solution A was added a mixture (5 μL) of the nucleic acid and ADAMTS5 to start the enzyme reaction. The final concentration of ADAMTS5 in the reaction solution was 5 nM, and the final substrate concentration was 50 μg/mL. The reaction solution was incubated at 37° C. for 2 hr, 2 μL of solution D was added, and the mixture was heated at 95° C. for 2 min to stop the enzyme reaction of ADAMTS5. Solution D contains 0.25 M tris (pH 6.8), 10% SDS, 50% glycerol, 0.25% bromo phenolblue, and 20% 2-mercaptoethanol. The heat-treated reaction solution was electrophoresed by 7.5% SDS-PAGE and stained with SYPRO Orange (manufactured by Sigma-Aldrich). The staining was performed according to the manual of Sigma-Aldrich and detected using STORM840 manufactured by GE Healthcare. […] The amount of uncleaved substrate in each reaction solution was quantified from the band intensity and the standard curve. The substrate cleavage efficiency of ADAMTS5 under these reaction conditions was 80-100%. The inhibition rate of the test substance was calculated using the following equation.\nThe aptamers having the sequences shown in SEQ ID NOs: 10(1)-10(8) and 11(1)-11(35), SEQ ID NO: 13-15 were all produced by chemical synthesis.", "units": {"activity": "% inhibition"}}
{"binder": "B14", "activity": 62.8}
{"binder": "B15", "activity": 32}
{"binder": "B16", "activity": 60.6}
{"binder": "B17", "activity": 58.4}
{"binder": "B18", "activity": 19.5}
{"binder": "B19", "activity": 45.1}
{"binder": "B20", "activity": 59.1}
{"binder": "B21", "activity": 62.5}
{"binder": "B22", "activity": 58.8}
{"binder": "B23", "activity": 60.8}
{"binder": "B24", "activity": 50.9}
{"binder": "B25", "activity": 20.3}
{"binder": "B26", "activity": 60.5}
{"binder": "B27", "activity": 9.2}
{"binder": "B28", "activity": 76.4}
{"binder": "B29", "activity": 50.4}
{"binder": "B30", "activity": 70}
{"binder": "B31", "activity": 81.1}
{"binder": "B32", "activity": 55.5}
{"binder": "B33", "activity": 80.3}
{"binder": "B34", "activity": 74.7}
{"binder": "B35", "activity": 23}
{"binder": "B36", "activity": 43.2}
{"binder": "B37", "activity": 50.9}
{"binder": "B38", "activity": 60.3}
{"binder": "B39", "activity": 38.3}
{"binder": "B40", "activity": 34.2}
{"binder": "B41", "activity": 41.3}
{"binder": "B42", "activity": 2}
{"binder": "B43", "activity": 3.6}
{"binder": "B44", "activity": 8.5}
{"binder": "B45", "activity": 10.4}
{"binder": "B46", "activity": 12.6}
{"binder": "B47", "activity": 61.8}
{"binder": "B48", "activity": 12.8}
